# Measured values from CN114652853A (JIANGSU ZHEREI MEDICINE CO LTD; SHANGHAI TENGDI MEDICINE CO …, dated 2022).
# T1: 人源IL-4R (human IL-4R), overexpressed on LN229, U251 and HEK293 cells (human, UniProt P24394 26-825)
# T1 sequence (looked up): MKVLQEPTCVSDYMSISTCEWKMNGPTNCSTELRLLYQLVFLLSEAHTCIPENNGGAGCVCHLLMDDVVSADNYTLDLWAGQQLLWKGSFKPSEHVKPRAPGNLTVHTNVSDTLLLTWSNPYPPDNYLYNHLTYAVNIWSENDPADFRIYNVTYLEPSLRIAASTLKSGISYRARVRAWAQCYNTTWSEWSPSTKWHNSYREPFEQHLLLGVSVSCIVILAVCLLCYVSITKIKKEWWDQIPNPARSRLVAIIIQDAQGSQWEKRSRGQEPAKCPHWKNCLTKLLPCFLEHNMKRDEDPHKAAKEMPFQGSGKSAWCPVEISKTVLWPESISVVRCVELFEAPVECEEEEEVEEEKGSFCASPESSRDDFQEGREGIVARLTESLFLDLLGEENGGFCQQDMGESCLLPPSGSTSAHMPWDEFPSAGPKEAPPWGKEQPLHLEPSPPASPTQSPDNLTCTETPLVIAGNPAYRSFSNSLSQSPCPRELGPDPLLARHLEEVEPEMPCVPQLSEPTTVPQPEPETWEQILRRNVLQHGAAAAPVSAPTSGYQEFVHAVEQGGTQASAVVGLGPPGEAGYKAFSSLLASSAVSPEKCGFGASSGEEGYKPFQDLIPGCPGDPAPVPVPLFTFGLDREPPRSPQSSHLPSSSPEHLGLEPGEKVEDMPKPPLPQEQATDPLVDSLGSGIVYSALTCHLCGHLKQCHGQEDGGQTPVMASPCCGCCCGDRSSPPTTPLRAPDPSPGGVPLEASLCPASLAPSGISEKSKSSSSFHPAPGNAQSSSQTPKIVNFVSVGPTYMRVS
# Biological target: T1, 人源IL-4R (human IL-4R), overexpressed on …
# Assay: cell-based or functional assay
row,"IC50, 体外毒性 in HEK293-IL4R细胞",Binder
1,0.458 nM,"25G7-C1, DAR=5.86 (antibody, human IgG1, kappa, V domains shown, 依喜替康类似物 (exatecan analogue) joined through a linker; measured DAR 5.86; attachment residues not stated) VH: EVQLVESGGGLVQPGGSLRLSCAASGFTFSDYGMHWVRQAPGKGLEWVAFISSGSSIIYYADIVKGRSTISRDNAKNTLYLQMNSLRAEDTAVYYCTRGNKRGFFDYWGQGTLVTVSS VL: EIVLTQSPATLSLSPGERATLSCRASSSVPYMYWYQQKPGQAPRLLIYLTSNLASGIPARFSGSGSGTDFTLTISSLEPEDFAVYYCQQWRAYPPMLTFGGGTKVEIKR"
2,3.29 nM,"25G7-C1, DAR=3.52 (antibody, human IgG1, kappa, V domains shown, 依喜替康类似物 (exatecan analogue) joined through a linker; measured DAR 3.52; attachment residues not stated) VH: EVQLVESGGGLVQPGGSLRLSCAASGFTFSDYGMHWVRQAPGKGLEWVAFISSGSSIIYYADIVKGRSTISRDNAKNTLYLQMNSLRAEDTAVYYCTRGNKRGFFDYWGQGTLVTVSS VL: EIVLTQSPATLSLSPGERATLSCRASSSVPYMYWYQQKPGQAPRLLIYLTSNLASGIPARFSGSGSGTDFTLTISSLEPEDFAVYYCQQWRAYPPMLTFGGGTKVEIKR"
